Data set [1] addresses T1, TBP (human TATA binding protein) (Homo sapiens, UniProt P20226 1-339). In words: bulk FRET; 50 mM KCl, 4 mM Mg2+; 20 mM Tris pH 7.9, 4 mM MgCl2, 1 mM DTT, 5% glycerol, 5-150 mM KCl as indicated, 1 nM labeled DNA (1-5 nM in Results), 20 min; 25 C (37 C tested). Conditions: protein: recombinant; label: 5' ends labeled with donor (Atto-488) and acceptor (Atto-633 or Atto-647N); blunt.

In data set [2] the target is T1, TBP (human TATA binding protein). Nature of the data set: bulk FRET; 150 mM KCl, 4 mM Mg2+; 20 mM Tris pH 7.9, 4 mM MgCl2, 1 mM DTT, 5% glycerol, 5-150 mM KCl as indicated, 1 nM labeled DNA (1-5 nM in Results), 20 min; 25 C (37 C tested). Conditions: protein: recombinant, blunt.
Data set [3] has the same target. In words: bulk FRET; similar to TATA-14E; stoichiometry 1.1 TBP:DNA; 20 mM Tris pH 7.9, 4 mM MgCl2, 1 mM DTT, 5% glycerol, 5-150 mM KCl as indicated, 1 nM labeled DNA (1-5 nM in Results), 20 min; 25 C (37 C tested). The settings on record: protein: recombinant; label: 5' ends labeled with donor and acceptor; blunt.
The target is the same in data set [4]. In words: bulk FRET; 5-150 mM KCl; biphasic at low salt; similar at 25 and 37 C; 20 mM Tris pH 7.9, 4 mM MgCl2, 1 mM DTT, 5% glycerol, 5-150 mM KCl as indicated, 1 nM labeled DNA (1-5 nM in Results), 20 min; 25 C (37 C tested). The settings on record: protein: recombinant; label: 5' donor and internal amino-dT acceptor 18 bp away, same strand; blunt.

T1 sequence (P20226 whole entry): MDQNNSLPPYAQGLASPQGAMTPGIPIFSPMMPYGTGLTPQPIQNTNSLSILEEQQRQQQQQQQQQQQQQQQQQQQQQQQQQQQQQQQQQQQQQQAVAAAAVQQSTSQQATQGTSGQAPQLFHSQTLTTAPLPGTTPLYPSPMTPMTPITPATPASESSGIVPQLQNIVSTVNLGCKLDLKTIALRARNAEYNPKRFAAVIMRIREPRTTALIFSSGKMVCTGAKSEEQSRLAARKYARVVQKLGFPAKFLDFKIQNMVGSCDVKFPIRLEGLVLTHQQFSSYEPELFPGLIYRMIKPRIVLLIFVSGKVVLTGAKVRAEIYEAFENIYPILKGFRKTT

B1: TATA-14E (dsDNA)
DNA 1: GGCTATAAAAGGGG
DNA 2: CCCCTTTTATAGCC
By Kd is commonly meant the concentration at which binding is half-saturated. With B1, the Kd came out at 5 ± 1 nM in data set [1]; 10 ± 3 nM in data set [2] (label: 5' ends labeled with donor (Atto-488) and acceptor (Atto-633 or Atto-647N)).

B2: TATA-14E* (dsDNA)
DNA 1: GGGTATAAAAGGGG
DNA 2: CCCCTTTTATACCC
Turning to B2, the binding result in data set [3] was “binds”.

B3: TATA-18I (dsDNA)
DNA 1: TGGGGTATAAAAGGGGGTGGACACGTG
DNA 2: CACGTGTCCACCCCCTTTTATACCCCA
Turning to B3, the binding result in data set [4] is “binds”.

B4: TATA-14I (dsDNA)
DNA 1: TGGTATAAAAGGGTGCGGACACGTG
DNA 2: CACGTGTCCGCACCCTTTTATACCA
With B4, the dissociation constant (Kd) in data set [2] (label: 5' donor and internal amino-dT acceptor 14 bp away, same strand) came to 6 ± 1 nM.

Values taken from publication PMC4081063, “The conformational state of the nucleosome entry–exit site modulates TATA box-specific TBP binding”.
